B1: CPEB3 Ribozyme (parent)
chain: UAACAGGGGGCCACAGCAGAAGCGUUCACGUCGCAGCCCCUGUCAGAUUCUGGUGAAUCUGCGAAUUCUGCUGUAUAUCUC

Experimental findings from the RNAGym collection of RNA variant scans (doi:10.1093/nar/gkz1192) are described below.

The data set covers variants of B1. Put plainly: self-cleavage, relative activity (ratio to wild type); higher = more cleavage; in vitro, sequencing. A digest of the protocol: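 Libraries of CPEB3 self-cleaving ribozyme mutants came from rounds of error-prone PCR and carried barcodes, which DNA sequencing matched to variants. In vitro transcription used T7 RNA polymerase at 37°C for 5 hours, with a further 15 min in DNase I before EDTA stopped the reaction; the ribozymes cleaved during both steps. The RNA was reverse transcribed with template switching and sequenced on Illumina. Relative activity is the cleaved/total read fraction of a variant divided by that of the unmutated ribozyme, averaged over three batches with at least 5 reads.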
With A2C U58A, the self-cleavage came to 0.2.
C14G C29A: the self-cleavage amounted to 0.87.
For the variant G6U A21G, the self-cleavage was 0.29.
On to A5C A45G, for which the self-cleavage amounted to 0.7.
Regarding A5G A75U, the self-cleavage was 0.83.
Turning to U43C U69C, the self-cleavage is 0.31.
Consider C40U U49C, for which the self-cleavage stood at 0.36.
Turning to A5U U26C, the self-cleavage was 0.72.
In the case of C44G C68A, the self-cleavage came to 0.3.
Consider U41C U76G, for which the self-cleavage was 1.05.
In the case of A15G A77C, the self-cleavage is 1.1.
U69G G73A: the self-cleavage turned out to be 0.98.
On to C39A A77G, for which the self-cleavage was determined as 0.22.
In the case of U41A A45C, the self-cleavage is 0.18.
Then U54A A64C, with 0.16; and C11G C34G, with 0.38.
With A13G, the self-cleavage stood at 0.94.
Take A57G U78C: the self-cleavage came out at 0.83.
For A15G U48C, the self-cleavage worked out at 0.46.
In the case of C29G U72C, the self-cleavage is 0.26.
As for C32A G46A, the self-cleavage is 0.11.
With G55U U66C, the self-cleavage came to 0.49.
Then A21C C71G, with 0.11.
The result for G7A A15U reads 0.23; that for C12G U49C, 0.16; that for C40U U74C, 1.08.
As to G36C A47C, the self-cleavage came out at 0.13.
With C11G U78G, the self-cleavage came out at 0.59.
Consider G9U A28G, for which the self-cleavage was 0.11.
Take G8A G19A: the self-cleavage was 0.06.
The result for A45C U67C reads 0.15; that for A18U G52U, 0.39; that for U31C G53U, 1.06.
As for U48C C50U, the self-cleavage was 0.54.
U41A U69C: the self-cleavage is 0.24.
As for G7A A35G, the self-cleavage amounted to 0.46.
With A18G C39U, the self-cleavage amounted to 0.52.
A5C G46U: the self-cleavage was found to be 0.06.
For the variant C11U C23U, the self-cleavage turned out to be 0.24.
With A57U A75G, the self-cleavage is 0.69.
Then C32U G61C, with 0.18; and A5U G36A, with 0.39; and U60A U80A, with 0.59.
Regarding U51C A64U, the self-cleavage came to 0.42.
For the variant A2G U49C, the self-cleavage amounted to 0.32.
With G8U C11U, the self-cleavage amounted to 0.1.
Then A13C U49C, with 0.42; and A21G U51C, with 0.6.
Turning to A21G U51G, the self-cleavage turned out to be 0.72.
Then A13G A45G, with 0.67; and C11G A21G, with 0.3.
Then C27A U41A, with 0.07.
As for A64C U67C, the self-cleavage was 0.2.
For C40A U69C, the self-cleavage was 0.25.
G6A A18U: the self-cleavage was found to be 0.23.
Take C34G A45C: the self-cleavage is 0.19.
Turning to C11U U80A, the self-cleavage worked out at 0.31.
On to U60C U80G, for which the self-cleavage came to 0.44.
Regarding U72C U80C, the self-cleavage is 1.24.
On to U31G U49C, for which the self-cleavage amounted to 0.26.
On to G6A A13G, for which the self-cleavage came out at 0.35.
For G24C U72A, the self-cleavage was found to be 0.19.
As for A21U C29A, the self-cleavage is 0.21.
As for U51A U78G, the self-cleavage turned out to be 1.04.
As to U48C U72A, the self-cleavage is 0.4.
For C14U U25A, the self-cleavage was 0.44.
For G9U A45C, the self-cleavage is 0.05.
A21G C27U: the self-cleavage turned out to be 0.18.
Then U25C A65C, with 0.45; and C23U U51A, with 0.2.
For A47G U69C, the self-cleavage stood at 0.57.
U31A U48A: the self-cleavage was 0.13.
As for G7U U69C, the self-cleavage was 0.19.
The result for G7A G46A reads 0.07; that for C17U U60C, 0.21; that for A13U U67C, 0.3.
As for A45C G55C, the self-cleavage was found to be 0.11.
For C14A A45U, the self-cleavage worked out at 0.77.
Regarding G46A A56G, the self-cleavage is 0.25.
Regarding A56C A65G, the self-cleavage stood at 0.22.
For G46A A57G, the self-cleavage was 0.16.
C11A C44A: the self-cleavage was determined as 0.13.
The result for G10A reads 0.26; that for C11A U78C, 0.31.
With U58C U69G, the self-cleavage is 0.15.
For C27U U49C, the self-cleavage came out at 0.15.
The result for G7U C50A reads 0.06.
Consider U1A G10A, for which the self-cleavage was determined as 0.25.
For the variant C14A U67C, the self-cleavage turned out to be 0.14.
For A13G U48A, the self-cleavage turned out to be 0.31.
Take G7A U54G: the self-cleavage amounted to 0.22.
Regarding A28G U72G, the self-cleavage turned out to be 0.56.
As for G9U A47G, the self-cleavage amounted to 0.29.
Then U31C G70A, with 0.25; and C37U G63U, with 0.84.
The result for A20U A28U reads 0.19; that for A13U C40U, 1.25; that for C12G, 0.59.
Take A45U C62U: the self-cleavage was 0.31.
Take A56C U76A: the self-cleavage is 0.71.
For U26A U66A, the self-cleavage is 0.38.
The result for U66A U67C reads 0.33; that for G30U C40U, 0.2.
Consider G10C A15G, for which the self-cleavage was determined as 0.08.
Turning to U26C G36A, the self-cleavage came to 0.13.
With U26C G36C, the self-cleavage worked out at 0.15.
Turning to A45U U48C, the self-cleavage came to 0.34.
In the case of A45U C71A, the self-cleavage turned out to be 0.1.
Turning to A21C C38A, the self-cleavage turned out to be 0.
For A20U G33C, the self-cleavage amounted to 0.15.
Turning to G70A U76C, the self-cleavage was found to be 0.75.
For U54A C62G, the self-cleavage was found to be 0.42.
Turning to U26A A64U, the self-cleavage came out at 0.27.
Turning to A2G C14U, the self-cleavage was found to be 0.49.
For the variant U43C C68A, the self-cleavage is 0.28.
With G22C A57G, the self-cleavage was 0.32.
In the case of A5G U76A, the self-cleavage is 0.85.
G22A U49C: the self-cleavage was 0.11.
As for U54G U74C, the self-cleavage was found to be 0.92.
Then U25A G46A, with 0.15.
With A13C U60G, the self-cleavage came out at 0.57.
Then A47G A65G, with 0.4; and C38U C39U, with 0.26; and G16U U67A, with 0.19.
On to C17U U54C, for which the self-cleavage was found to be 0.66.
For the variant A15G C27A, the self-cleavage amounted to 0.21.
The result for U25C C50A reads 0.09; that for A57G C59U, 0.83; that for G52A U69G, 0.98.
Consider A15G C34A, for which the self-cleavage was determined as 0.2.
The result for G10A A21U reads 0.13.
The result for G10A U25A reads 0.26; that for G33A C50U, 0.1; that for G36A U54C, 0.25.
In the case of C23U U67C, the self-cleavage stood at 0.28.
On to C44U A47G, for which the self-cleavage came out at 0.35.
For the variant A45G U60C, the self-cleavage is 1.13.
Take C4U G33A: the self-cleavage amounted to 0.37.
As to A13U U43A, the self-cleavage was found to be 1.09.
Then A15U U54C, with 0.77; and C38A U49C, with 0.16.
As to U67A U74G, the self-cleavage came to 0.81.
As for C14A A35G, the self-cleavage is 1.26.
Turning to G42A C44G, the self-cleavage was found to be 0.11.
Regarding A20G C38G, the self-cleavage amounted to 0.12.
Then A28G G42U, with 0.26.
U67C A77U: the self-cleavage came to 0.34.
With G24A C40U, the self-cleavage turned out to be 0.1.
Regarding A21U U74A, the self-cleavage worked out at 0.76.
Take C40A A47G: the self-cleavage amounted to 0.21.
Turning to U67A U76C, the self-cleavage is 0.58.
Take G24U U60A: the self-cleavage is 0.16.
For C50A A65G, the self-cleavage turned out to be 0.31.
For A15U G22C, the self-cleavage came out at 0.06.
On to U43A G73A, for which the self-cleavage was 1.28.
Consider U26C U60C, for which the self-cleavage stood at 0.27.
A13U U80G: the self-cleavage turned out to be 1.27.
For G8A C62A, the self-cleavage stood at 0.07.
Consider U41A G42U, for which the self-cleavage was 0.27.
Turning to A28C A35G, the self-cleavage stood at 0.98.
The result for G10A A47G reads 0.12; that for A57G A64G, 0.81; that for U31C A56G, 0.67.
Take U25G U58C: the self-cleavage was 0.2.
On to U26A G70A, for which the self-cleavage was 0.4.
Then G8A C71A, with 0.17; and A3G C4U, with 1.11.
